# Reference: patent publication US20250243290A1
# “And” between values parts separate entries of the source, which are not always exact repeats. Equal entries are not always repeated.
# Legend:
# Experiment in all cases: peptide-array ELISA [Con't]
# CAPLRK2…2APGTFSN = target: CAPLRK2…2APGTFSN
# CG2RL2APLRK2…2TSTSPTRC = target: CG2RL2APLRK2…2TSTSPTRC
# WVPE2…2 = target: WVPE2…2
# LS2…2RPGW = target: LS2…2RPGW
# SCGSR2…2 = target: SCGSR2…2
# CAPEPGST2…2TSTSPTRC = target: CAPEPGST2…2TSTSPTRC
# …2GGSGGQA2TREQNRIC = target: …2GGSGGQA2TREQNRIC
# TREQNRI2…2RL = target: TREQNRI2…2RL
# 2…2R = target: 2…2R
# [1] = target: CDQVETQA2…2…
# [2] = target: VPE2LSCGSR2…
# REQNRI2…2R = target: REQNRI2…2R
# [3] = target: SDVV2…
# [4] = target: 2…
# PE2LS2…2TREQNRIC = target: PE2LS2…2TREQNRIC
# VPE2LS2…2RPGW = target: VPE2LS2…2RPGW
# VPE2LS2…2…2 = target: VPE2LS2…2…2
# [5] = target: C2…2…
# [6] = target: VV2…
# LS2…2R = target: LS2…2R
# TREQNRI2…2R = target: TREQNRI2…2R
# [7] = target: ETSDVV2…
# [8] = target: CSR2…2TRCAPLRK2…
# 2…2RPGW = target: 2…2RPGW
# [9] = target: WNWVPE2…
# [10] = target: CQA2TREQNRI2T2RPCAPLRK2…
# [11] = target: TETSDVV2…
# [12] = target: SKQEGCRL2APGGSGGL2…
# [13] = target: CAPEPGST2…2…
# CAPLRK2…2TREQNRI2T2RPC = target: CAPLRK2…2TREQNRI2T2RPC
# CLSKQEG2RL2…2RLC = target: CLSKQEG2RL2…2RLC
# [14] = target: LS2…2…
# LSCGSR2…2T = target: LSCGSR2…2T
# [15] = target: CG2RL2APLRK2RPGFCQA2TREQNRI2T2RPC
# [16] = target: CAPLRK2…2…
# …2SK2SPGQH = target: …2SK2SPGQH
# …2TREQNRIC = target: …2TREQNRIC
# [17] = target: …2…
# …2R = target: …2R
# [18] = target: …2TSCAPLRK2…
# S2…2TREQNRIC = target: S2…2TREQNRIC
# [19] = target: V2…
# VPE2LS2…2R = target: VPE2LS2…2R
# 2LS2…2…2 = target: 2LS2…2…2
# [20] = target: C22SK2…2CQA2TREQNRI2T2RPC
# [21] = target: CAV2…2…
# [22] = target: S2…2…
# [23] = target: …2RLCAPLRK2…
# PE2LS2…2R = target: PE2LS2…2R
# [24] = target: STDI2…
# [25] = target: …2…2…
# 2LS2…2RPG = target: 2LS2…2RPG
# CNWVPE2LS2GSR2…2TSTSPTRC = target: CNWVPE2LS2GSR2…2TSTSPTRC
# Sequence of …2R (peptide, as listed by the source): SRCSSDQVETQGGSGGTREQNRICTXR
# Sequence of …2… (peptide, as listed by the source): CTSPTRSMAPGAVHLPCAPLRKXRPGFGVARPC
# Sequence of WNWVPE2… (peptide, as listed by the source): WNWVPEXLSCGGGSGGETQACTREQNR
# Sequence of STDI2… (peptide, as listed by the source): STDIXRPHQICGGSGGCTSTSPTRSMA
substance,measurement,setting,value
agonistic TNFR2 antibody MR2-1,Raw luminescence data,CAPLRK2…2APGTFSN,293
same,Raw luminescence data,CG2RL2APLRK2…2TSTSPTRC,287
same,Raw luminescence data,WVPE2…2,317
same,Raw luminescence data,LS2…2RPGW,299
same,Raw luminescence data,SCGSR2…2,192
same,Raw luminescence data,CAPEPGST2…2TSTSPTRC,213
same,Raw luminescence data,…2GGSGGQA2TREQNRIC,206
same,Raw luminescence data,TREQNRI2…2RL,206
same,Raw luminescence data,2…2R,223
same,Raw luminescence data,[1],201
same,Raw luminescence data,[2],194
same,Raw luminescence data,REQNRI2…2R,210
same,Raw luminescence data,[3],203 and 196
same,Raw luminescence data,[4],208
same,Raw luminescence data,PE2LS2…2TREQNRIC,224
same,Raw luminescence data,VPE2LS2…2RPGW,222
same,Raw luminescence data,VPE2LS2…2…2,206
same,Raw luminescence data,[5],194
same,Raw luminescence data,[6],209
same,Raw luminescence data,LS2…2R,218
same,Raw luminescence data,TREQNRI2…2R,205
same,Raw luminescence data,[7],197
same,Raw luminescence data,[8],210
same,Raw luminescence data,2…2RPGW,224
same,Raw luminescence data,[9],220
same,Raw luminescence data,[10],204
same,Raw luminescence data,[11],208
same,Raw luminescence data,[12],224
same,Raw luminescence data,[13],196
same,Raw luminescence data,CAPLRK2…2TREQNRI2T2RPC,220
same,Raw luminescence data,CLSKQEG2RL2…2RLC,198
same,Raw luminescence data,[14],198
same,Raw luminescence data,LSCGSR2…2T,194
same,Raw luminescence data,[15],215
same,Raw luminescence data,[16],223
same,Raw luminescence data,…2SK2SPGQH,194
same,Raw luminescence data,…2TREQNRIC,207 and 192
same,Raw luminescence data,[17],192
same,Raw luminescence data,…2R,200
same,Raw luminescence data,[18],197
same,Raw luminescence data,S2…2TREQNRIC,191
same,Raw luminescence data,[19],222 and 197
same,Raw luminescence data,VPE2LS2…2R,170
same,Raw luminescence data,2LS2…2…2,167
same,Raw luminescence data,[20],158
same,Raw luminescence data,[21],171
same,Raw luminescence data,[22],171
same,Raw luminescence data,[23],165
same,Raw luminescence data,PE2LS2…2R,162
same,Raw luminescence data,[24],159
same,Raw luminescence data,[25],160
same,Raw luminescence data,2LS2…2RPG,162
same,Raw luminescence data,CNWVPE2LS2GSR2…2TSTSPTRC,161
